Earlier results as cited in US20190010499.

System: IL-6
Conditions: binding constant used for modeling; measurement method not stated; nucleic acid type not stated; cited from earlier work

| Substance | Kd |
| --- | --- |
| Anti-IL-6 aptamer #1 (SL1025) | 0.233 nM |
| Anti-IL-6 aptamer #2 (SL1032) | 1.6 nM |
